Reference: US20240327505A1 (published 2024)
Where a chain is given by its changes, count along the chain named.

B1: AB-010020 (antibody, V domains shown)
VH: QMQLVQSGPEVKKPGTSVKVSCKASGFTFTSSAVQWVRQARGQRLEWIGWIVVGSGNTNYAQKFQERVTITRDMSTSTAYMELSSLRSEDTAVYYCAAPACSSTSCYDGFDIWGQGTMVTVSS
VL: not shown
B2: AB-010021 (antibody, V domains shown)
VH: B1 VH with P99V, A100Y, S103G, T104G, Y107L, G109A
VL: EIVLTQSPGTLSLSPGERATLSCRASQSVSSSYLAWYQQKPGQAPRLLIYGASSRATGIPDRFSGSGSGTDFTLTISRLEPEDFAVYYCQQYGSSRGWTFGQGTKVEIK
B3: AB-009610 (antibody, V domains shown)
VH: QVQLVQSGAEVKKPGSSVKVSCKASGGTFSNYAISWVRQAPGQGLEWMGRIIPILGIANYAQKFQGRVTITADKSTSTAYMELSSLRSEDTAVYYCATTPYYYDSSGYYLDYWGQGTLVTVSS
VL: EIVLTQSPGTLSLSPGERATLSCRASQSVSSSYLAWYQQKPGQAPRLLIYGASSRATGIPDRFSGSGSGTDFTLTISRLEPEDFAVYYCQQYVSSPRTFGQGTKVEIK
B4: AB-009613 (antibody, V domains shown)
VH: EVQLVESGGGLIQPGGSLRLSCAASGFTVSSNYMSWVRQAPGKGLEWVSVIYSGGSTYYADSVKGRFTISRDNSKNTLYLQMNSLRAEDTAVYYCARDYGDFYFDYWGQGTLVTVSS
VL: not shown
B5: AB-009629 (antibody, V domains shown)
VH: QVQLQQWGAGLLKPSETLSLTCAVYGGSFSGYYWSWIRQPPGKGLEWIGEINHSGSTNYNPSLKSRVTISVDTSKNQFSLKLSSVTAADTAVYFCARGTGIAVAGVLVNFYYCYYMDVWGKGTTVTVSS
VL: SSELTQDPAVSVALGQTVRITCQGDSLRSYYASWYQQKPGQAPVLVIYGKNNRPSGIPDRFSGSSSGNTASLTITGAQAEDEADYYCNSRDSSGNHLVFGGGTKLTVL
B6: AB-009358 (antibody, V domains shown)
VH: QVHLVQSGAEVKKPGASVKISCKASGYTFTSYYVHWVRQAPGQGLEWMGIIKPSGAGTIYAQKFQGRVTMTRDTSTSTVYMELSSLISEDTAVYYCARGGGVTDRDYWGQGTLVTVSS
VL: QSALTQEASVSATVGQKVTLSCTGNTNNIGGYAVGWHQQISHGAPKTVMFGNSLPSGIPDRFSGSKSGTTASLIISGLQPEDEADYYCSTWDSSLGAVLFGGGTKLTVL

Key:
[1] = target: T1, SARS-CoV-2 Spike (S) trimer (SARS-CoV-2, UniProt P0DTC2 16-1213)
[2] = target: T1, SARS-CoV-2 Spike (S) trimer; experiment: ELISA, S trimer coated, antibody at 1:50 dilution
[3] = target: SARS-CoV-2 Spike (S) trimer (SARS-CoV-2, UniProt P0DTC2 16-1213); experiment: ELISA, S trimer coated, antibody at 1:50 dilution; remark: listed apart in the source
[4] = target: SARS-CoV-2 spike S2 protein (SARS-CoV-2, UniProt P0DTC2 686-1213)

Binder	EC50 [1] [nM]	Optical Density (OD; 450 nm) [2] [OD 450 nm]	also measured
B1	0.15	–	–
B2	0.23	–	–
B3	–	2.02	–
B4	–	2.47	–
B5	–	–	Optical Density (OD; 450 nm) [3]: 0.114 OD 450 nm
B6	–	–	Kd [4]: 478 nM; koff [4]: 0.00176 s⁻¹; kon [4]: 3690 M⁻¹ s⁻¹
